The values below come from patent publication US10364299B2, “Derivatives obtained from hyaluronic acid and carnosine” (CONSIGLIO NAZIONALE DELLE RICERCHE, priority 2014, dated 2019).

Series [1] has as its target T1, human serum carnosinase (CN1) (Homo sapiens, UniProt Q96KN2).
T1 construct: made in house; host or cells: HeLa cells, stably transfected; enzyme purified from the culture medium
T1 sequence (Q96KN2 26-507): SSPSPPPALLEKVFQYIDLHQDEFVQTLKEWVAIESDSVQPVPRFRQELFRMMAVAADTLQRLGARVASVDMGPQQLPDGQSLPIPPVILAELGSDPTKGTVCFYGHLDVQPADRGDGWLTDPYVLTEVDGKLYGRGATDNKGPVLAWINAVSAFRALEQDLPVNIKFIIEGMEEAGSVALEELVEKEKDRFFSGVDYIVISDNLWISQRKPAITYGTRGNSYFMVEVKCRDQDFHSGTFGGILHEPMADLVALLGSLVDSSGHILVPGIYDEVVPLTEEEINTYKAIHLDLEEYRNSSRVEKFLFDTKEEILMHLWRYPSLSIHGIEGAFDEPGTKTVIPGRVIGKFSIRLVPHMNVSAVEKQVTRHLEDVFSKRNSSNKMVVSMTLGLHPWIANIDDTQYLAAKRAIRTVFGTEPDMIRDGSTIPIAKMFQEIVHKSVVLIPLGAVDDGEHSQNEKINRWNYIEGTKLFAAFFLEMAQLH
The experiment in a line: Enzymatic hydrolysis by human serum carnosinase. It is filed as in vitro ADME. To be noted: 900 μM, 37°C, 50 mM Tris/HCl pH 8.0, 5 hours; versus non-conjugated carnosine. On the procedure: The time-dependent stability of HyCar with respect to human serum carnosinase, compared with the stability of the mixture of carnosine+HA or carnosine alone, was determined by incubating each of these substances (900 μM) at 37° C. in 50 mM Tris/HCl (pH 8.0) with the above-mentioned enzyme (CN1), purified by the culture medium of Hela cells stably transfected as previously indicated (Antioxid. Redox Signal., 11, 2759, 2009). A parallel experiment was effected as negative control, in which hyaluronic acid alone was subjected to enzymatic action. The course of the reaction was followed by collecting, at various time intervals, 50 μl aliquots of the mixture for a total of 5 hours, and, after deproteinization with trichloroacetic acid (TCA), fluorometrically determining the quantity of histidine in the final solution, after reaction with ortho-phthalic aldehyde (OPA; Fluka), according to a procedure already described (Clin. Chim. Acta, 1982, 123, 221).
More specifically, FIG. 5 indicates the stability with time of HyCar (●), subjected to the action of human serum carnosinase, compared with the stability of carnosine (▪), carnosine+HA (▴), and HA alone (♦)(the latter used as negative control of the experiment). The histidine released was spectrophotometrically determined as OPA-derivative.

Series [2] is described as follows: Intrinsic viscosity by size exclusion chromatography with triple detector. It counts as physicochemical. To be noted: for Intrinsic viscosity: 40°C, 0.1M sodium nitrate. The protocol: Experiments aimed at determining the molecular weight distribution (MWD) and the intrinsic viscosity of the conjugated HyCar were effected on a CPG/SEC chromatographic system equipped with a Malvern triple detector (ViscoteckTDmax).
The parameters indicated above were determined by means of size exclusion chromatography carried out on the chromatographic system GPCmax VE 2001 (Malvern), equipped with two TSK-GEL GMPWXL columns (7.8 mm ID×30 cm; Viscotek-TOSOH BIOSCIENCE) installed in series. The system is coupled with a system of three detectors positioned in series and comprising: a refraction index detector, a light scattering detector and a four-capillary differential viscometer. The sample was eluted using an aqueous solution 0.1M of sodium nitrate containing 0.5 g/L of sodium azide with a flow of 0.6 ml/min, at 40° C. The software Omnisec 4.1 was used for the acquisition and data analysis.
The physical parameters relating to the intrinsic viscosity and molecular weight (MW), determined at different concentrations for the conjugate of hyaluronic acid-carnosine, compared with those of the corresponding hyaluronic acid, determined by means of size exclusion chromatography coupled with a triple detector, are indicated in Table 1 below.
(SEC sorts molecules by how far they enter the pores of the column.)

Turning to “conjugated 3-N-hyaluronyl of 2-(3-aminopropanamide)-3-(1H-imidazol-4-yl)propanoic acid [HyCar (7%)190 kD]”, the “resistance to the action of human serum carnosinase” value in series [1] is “greater resistance”. The “intrinsic viscosity compared with non-conjugated hyaluronic acid of the same MW (in words)” value in series [2] is “only slightly lower”. Besides, the Intrinsic viscosity in series [2] (theoretical conc. 0.1 mg/ml) came to 4.9 dL/g; in series [2] (theoretical conc. 0.25 mg/ml), 4.8 dL/g; in series [2] (theoretical conc. 0.5 mg/ml), 4.8 dL/g.
